Source: publication PMC13168245 (Nature Communications, 2026)

Legend:
AMC008-b12 complex = target: T1, AMC008-b12 complex (HIV-1 clade B, isolate AMC008 …, stabilised); experiment: mass photometry; AMC008 with two excess Fabs (b12 and 3BC315, or VRC01 and 3BC315), 1:9 molar ratio in PBS, on ice 30 minutes, diluted in PBS; mass increase divided by 55 kDa per Fab; settings: both partners purified
T1 construct: source: formed from purified AMC008 Env (Expi293F) and excess b12 Fab (1:9 molar ratio in PBS, on ice 30 minutes); copies: 3 + 3 + 3 + 3

AMC008-VRC01 complex = target: T2, AMC008-VRC01 complex (HIV-1 clade B, isolate AMC008 …, stabilised); experiment: as above; settings: both partners purified
T2 construct: source: formed from purified AMC008 Env (Expi293F) and excess VRC01 Fab (1:9 molar ratio in PBS, on ice 30 minutes); copies: 3 + 3 + 3 + 3

B1: antibody 3BC315 Fab (Fab, V domains shown)
VH: QVQLVQSGAEMKDPGASVKVSCRASGYKFTDYYMHWVRQAPGQGLEWVGWVNTNGGFTKYGAKFQGRVTVTRDTSTNTVFLELSRLTFGDTAMYFCARPMRPVSHGIDYSGLFVFQFWGRGTMVTVSS
VL: QSALTQPASVSASPGQSITISCSGTRSDVGGYDFVSWYQQHPGKVPKLIIYEVTKRPSGIPQRFSGSKSGNTASLTISGLQADDEADYYCCSYANYDKLILGGGTKLTVL
notes: source: Expi293F, heavy and light chain co-expressed; IgG purified on Protein A, digested with papain, Fab in the Protein A flow-through
Q: Which “stoichiometry N” value (AMC008-b12 complex) does the source give for B1 here?
A: Its value is about 3 Fabs.

Q: And the “stoichiometry N” value (AMC008-VRC01 complex)?
A: Its value is about 1 Fab.
